# According to the supplement of paper PMC6757056:
# ± gives the standard deviation of the averaged measurements.
# B1: library; a variant is named by its letters at N, in order (parent)
# chain: GCUGUCACCGAGAAACUGUGAAGUAUAUCUUAAACCUGGGCACUUAAAAGAUAUAUGGAGUUAGUAGUGCAACCUGCUCGGUCUGAUGAGUCCNNNNNNGGACGAAACAGC
# Tests used:
# [1] = variants of: B1; experiment: normalized RNA/DNA level without ligand (relative to sTRSVctl = 100) (log10 (% of sTRSVctl)); HEK293T; ligand: cyclic di-GMP (c-di-GMP-II aptamer); higher = less ribozyme self-cleavage, higher mRNA level; conditions: reporter: mCherry (pCS4076), ligand present: no
# How it was run: (§1)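 HEK293T cells were transfected with library plasmids carrying ribozyme switches linked to an mCherry reporter, or an eGFP reporter in some ligand experiments, at 4 µg per well of a 6-well plate, with any ligand added 1 h beforehand. After 72 h, total RNA was extracted with EDTA, reverse-transcribed, amplified, barcoded and sequenced. RNA level was defined as RNA reads over DNA reads, normalized to a spiked-in non-cleaving sequence or to the top-ranked sequences. That value was multiplied by 100 and converted to log10, the top set was 25 sequences, and only sequences with ≥100 DNA reads were retained.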
# [2] = variants of: B1; experiment: normalized RNA/DNA level with ligand (relative to sTRSVctl = 100) (log10 (% of sTRSVctl)); HEK293T; ligand: cyclic di-GMP (c-di-GMP-II aptamer); ligand concentration (+) RNA-Seq: 1 mM; higher = less ribozyme self-cleavage, higher mRNA level; conditions: reporter: mCherry (pCS4076), ligand present: yes
# How it was run: as §1
Variant,normalized RNA/DNA level without ligand (log10) [1],normalized RNA/DNA level with ligand (log10) [2]
GCGUGC,1.68 ± 0.0027,1.81 ± 0.14
ACUCCA,1.7 ± 0.02,1.84 ± 0.11
ACUCCU,1.72 ± 0.051,1.9 ± 0.1
ACUCCG,1.746 ± 0.0086,1.83 ± 0.15
ACGUUG,1.52 ± 0.083,1.74 ± 0.035
ACGUUC,1.61 ± 0.045,1.8 ± 0.1
ACGUUA,1.49 ± 0.045,1.65 ± 0.13
ACUACC,1.69 ± 0.04,1.86 ± 0.097
ACUACU,1.68 ± 0.041,1.82 ± 0.14
ACUACG,1.61 ± 0.022,1.81 ± 0.1
CCUUGA,1.63 ± 0.029,1.83 ± 0.095
GCGUUC,1.34 ± 0.19,1.55 ± 0.13
GCGUUA,1.54 ± 0.054,1.75 ± 0.11
GCGUUG,1.56 ± 0.042,1.75 ± 0.11
CCUAAG,1.56 ± 0.049,1.74 ± 0.095
CCUAAU,1.53 ± 0.042,1.73 ± 0.14
CCUAAC,1.66 ± 0.033,1.8 ± 0.097
CCUAAA,1.4 ± 0.07,1.61 ± 0.14
CCUGCA,1.67 ± 0.056,1.84 ± 0.058
CCUGCG,1.8 ± 0.026,1.88 ± 0.13
CCUGCU,1.698 ± 0.0032,1.84 ± 0.1
GCGGGG,1.74 ± 0.035,1.83 ± 0.12
GCGGGU,1.769 ± 0.0058,1.87 ± 0.12
UCUGUC,1.75 ± 0.035,1.87 ± 0.1

Variant,normalized RNA/DNA level without ligand (log10) [1],normalized RNA/DNA level with ligand (log10) [2]
UCUGUG,1.73 ± 0.051,1.91 ± 0.092
UCUGUU,1.636 ± 0.0046,1.82 ± 0.12
GCUCCA,1.7142 ± 0.0002,1.83 ± 0.1
GCUCCG,1.79 ± 0.028,1.92 ± 0.13
GCUCCU,1.71 ± 0.0058,1.85 ± 0.081
GCUCCC,1.71 ± 0.052,1.83 ± 0.17
ACGUCA,1.61 ± 0.033,1.76 ± 0.13
ACGUCG,1.605 ± 0.011,1.81 ± 0.12
ACGUCU,1.55 ± 0.087,1.74 ± 0.085
ACGUCC,1.75 ± 0.042,1.93 ± 0.12
ACUGUG,1.6 ± 0.038,1.76 ± 0.11
ACUGUC,1.63 ± 0.036,1.8 ± 0.15
ACUGUU,1.452 ± 0.011,1.67 ± 0.13
GCUACU,1.66 ± 0.019,1.81 ± 0.1
GCUACC,1.67 ± 0.065,1.84 ± 0.098
GCUACA,1.583 ± 0.0028,1.79 ± 0.072
UCGGGG,1.69 ± 0.06,1.83 ± 0.11
UCGGGU,1.64 ± 0.09,1.79 ± 0.13
GCUUCG,1.67 ± 0.022,1.76 ± 0.076
GCUUCC,1.72 ± 0.023,1.85 ± 0.034
CCUGGG,1.72 ± 0.018,1.82 ± 0.18
CCUGGU,1.672 ± 0.0096,1.83 ± 0.13
CCUGGA,1.56 ± 0.052,1.76 ± 0.069
GCUGCC,1.67 ± 0.067,1.83 ± 0.16

Variant,normalized RNA/DNA level without ligand (log10) [1],normalized RNA/DNA level with ligand (log10) [2]
GCUGCU,1.682 ± 0.0098,1.8 ± 0.11
ACUCAA,1.52 ± 0.029,1.71 ± 0.099
ACUCAC,1.699 ± 0.0095,1.81 ± 0.092
ACUCAU,1.61 ± 0.022,1.81 ± 0.15
UCUGGG,1.74 ± 0.026,1.88 ± 0.059
UCUGGC,1.78 ± 0.025,1.88 ± 0.068
UCUGGA,1.58 ± 0.054,1.79 ± 0.1
CCGUAC,1.62 ± 0.027,1.75 ± 0.11
CCGUAG,1.32 ± 0.11,1.55 ± 0.14
UCUGCC,1.8 ± 0.045,1.91 ± 0.064
UCUGCG,1.78 ± 0.035,1.85 ± 0.12
UCUGCA,1.748 ± 0.0085,1.85 ± 0.13
ACUGGC,1.61 ± 0.084,1.79 ± 0.12
GCUAUC,1.53 ± 0.045,1.66 ± 0.13
GCUAUU,1.568 ± 0.0067,1.74 ± 0.12
GCUCUG,1.629 ± 0.0036,1.8 ± 0.11
GCUCUC,1.66 ± 0.026,1.81 ± 0.079
GCGUAA,1.44 ± 0.091,1.61 ± 0.096
GCGUAC,1.34 ± 0.086,1.52 ± 0.12
UCUAAG,1.64 ± 0.079,1.82 ± 0.072
UCUAAC,1.6887 ± 0.0016,1.83 ± 0.13
CCUCUA,1.427 ± 0.0066,1.68 ± 0.13
CCUCUG,1.63 ± 0.058,1.81 ± 0.1
CCUCUC,1.79 ± 0.053,1.89 ± 0.14

Variant,normalized RNA/DNA level without ligand (log10) [1],normalized RNA/DNA level with ligand (log10) [2]
CCUCUU,1.63 ± 0.017,1.81 ± 0.15
UCGUUA,1.44 ± 0.076,1.63 ± 0.051
UCGUUC,1.739 ± 0.0071,1.88 ± 0.11
UCGUUG,1.61 ± 0.14,1.83 ± 0.096
UCGUUU,1.68 ± 0.042,1.85 ± 0.11
UCUCGC,1.808 ± 0.017,1.88 ± 0.098
UCUCGU,1.69 ± 0.037,1.85 ± 0.075
UCUCGG,1.9 ± 0.063,1.96 ± 0.13
UCUCGA,1.8 ± 0.036,1.86 ± 0.15
CCUCAC,1.698 ± 0.0058,1.85 ± 0.1
CCUCAU,1.65 ± 0.064,1.81 ± 0.057
ACUGAG,1.54 ± 0.11,1.71 ± 0.031
ACUGAC,1.611 ± 0.012,1.77 ± 0.12
CCUCGG,1.838 ± 0.011,1.94 ± 0.025
CCUCGC,1.745 ± 0.0039,1.82 ± 0.14
CCUCGA,1.71 ± 0.058,1.84 ± 0.093
CCUCGU,1.75 ± 0.057,1.86 ± 0.084
UCGGUU,1.61 ± 0.093,1.79 ± 0.082
UCGGUG,1.68 ± 0.049,1.78 ± 0.13
CCUUAC,1.71 ± 0.0031,1.83 ± 0.12
CCUUAU,1.6 ± 0.034,1.79 ± 0.087
GCUCAA,1.6 ± 0.023,1.79 ± 0.072
GCUCAG,1.79 ± 0.081,1.87 ± 0.15
GCUCAC,1.69 ± 0.034,1.83 ± 0.12

Variant,normalized RNA/DNA level without ligand (log10) [1],normalized RNA/DNA level with ligand (log10) [2]
CCGGGU,1.69 ± 0.066,1.81 ± 0.15
GCUUGA,1.54 ± 0.08,1.76 ± 0.12
GCUGAG,1.5 ± 0.079,1.67 ± 0.069
GCUGAC,1.47 ± 0.069,1.67 ± 0.1
GCUGAU,1.55 ± 0.061,1.72 ± 0.087
GCUGUC,1.43 ± 0.14,1.72 ± 0.024
CCUACA,1.53 ± 0.07,1.77 ± 0.044
CCUACG,1.7 ± 0.021,1.82 ± 0.13
CCUACU,1.581 ± 0.011,1.76 ± 0.12
CCUUCC,1.779 ± 0.0029,1.87 ± 0.12
CCUUCG,1.74 ± 0.0028,1.87 ± 0.14
ACUGCA,1.64 ± 0.023,1.77 ± 0.1
ACUGCG,1.73 ± 0.069,1.83 ± 0.069
ACUGCC,1.744 ± 0.016,1.88 ± 0.12
ACGGGC,1.7 ± 0.073,1.88 ± 0.1
ACGGGG,1.693 ± 0.015,1.82 ± 0.1
ACGGGU,1.42 ± 0.083,1.58 ± 0.092
CCGUUA,1.36 ± 0.096,1.59 ± 0.15
CCGUUC,1.6 ± 0.047,1.78 ± 0.056
CCGUUU,1.53 ± 0.058,1.71 ± 0.14
